Columns and labels:
[1] = biological target: CA125抗原 (Cancer Antigen 125) (human) (UniProt Q8WXI7); assay: SPR, Biacore T100, antigen on chip, 1:1 fit (repeats Table 1)
[2] = biological target: CA125抗原 (Cancer Antigen 125) (human) (UniProt Q8WXI7); assay: SPR, Biacore T100, antigen coupled to chip, nanobody as analyte, 1:1 fit
[3] = biological target: CA125抗原 (Cancer Antigen 125) (human) (UniProt Q8WXI7); assay: SPR, Biacore, comparator nanobody listed in Table 1
[4] = biological target: CA125抗原 (Cancer Antigen 125) (human) (UniProt Q8WXI7); assay: SPR, Biacore T100, antigen coupled to chip, bispecific as analyte, 1:1 fit

Kd [1]	Kd [2]	Kd [3]	Binder	further results
3.59 nM	3.59 nM		抗CA125纳米抗体4A4 (VHH) VHH: QVQLQESGGGLVQAGTSLTLSCAASERTFSAYDMNWYRQAPGKERELVAAISWRGPITYVADSVKGRFTISRDNAKNTVYLQMNSLKPEDTAIYYCNAEPGPGYVGSYALSYWGQGTQVTVSS	
0.198 nM	0.198 nM		抗CA125纳米抗体6C1 (VHH) VHH: QVQLQESGGGLVQAGGSLRLSCAASGSMFSINAMRWYRQAPGKQRELVAAITSGGSTNYADSVKGRFTISRDNAKNTMYLQMNSLKPEDTAVYYCNAAQTRLPNSADRYEYDYWGQGTQVTVSS	

More lines, now with the values behind:

Binder	Kd [1]	Kd [2]	Kd [3]	further results
VHH-CA125-2H7 (VHH, from another filing) VHH: ESGGGLVQAGGSLRLSCERSDAPHSPYTMGWFRQAPGKDREFVATITWSGGTTLYADSVKGRFTISRGIAKNTAYLQMNTLKPEDTAVYYCAVGLGGGAYREDHQYDYWGQGT			0.718 nM	
抗CA125双特异性纳米抗体 4A4-(G4S)4-6C1 (bispecific antibody) QVQLQESGGGLVQAGTSLTLSCAASERTFSAYDMNWYRQAPGKERELVAAISWRGPITYVADSVKGRFTISRDNAKNTVYLQMNSLKPEDTAIYYCNAEPGPGYVGSYALSYWGQGTQVTVSSGGGGSGGGGSGGGGSGGGGSQVQLQESGGGLVQAGGSLRLSCAASGSMFSINAMRWYRQAPGKQRELVAAITSGGSTNYADSVKGRFTISRDNAKNTMYLQMNSLKPEDTAVYYCNAAQTRLPNSADRYEYDYWGQGTQVTVSS				Kd [4]: 0.0768 nM
VHH-CA125-4H10 (VHH, from another filing) VHH: ESGGGLVQPGGSLRLSCAASEFTLEHYAIGWFRQAPGKEREGVGCISSSQENTYVEDSAKGRFTISRDNVKNTVYLQMNSLKPEDTAVYYCAARRFGLCVISPGYFEVWGQGT			0.285 nM	
VHH-CA125-4C1 (VHH, from another filing) VHH: ESGGGLVQAGGSLRLSCAASGNTFNINAMGWYRQAPGKQRELVATITSGGSTNYADSVKGRFTISRDNAKNTVFLQMNSLKPEDTAVYYCNAVQTRLPNSPDRYEYDYWGQGT			0.635 nM	
